Experimental data from US20230002496A1 (STAIDSON BEIJING BIOPHARMACEUTICALS, published 2023).
Where two headings read alike, the source gives them in different places.

T1: human GM-CSFRα, full length on cells (human, UniProt P15509 23-400)
T1 sequence: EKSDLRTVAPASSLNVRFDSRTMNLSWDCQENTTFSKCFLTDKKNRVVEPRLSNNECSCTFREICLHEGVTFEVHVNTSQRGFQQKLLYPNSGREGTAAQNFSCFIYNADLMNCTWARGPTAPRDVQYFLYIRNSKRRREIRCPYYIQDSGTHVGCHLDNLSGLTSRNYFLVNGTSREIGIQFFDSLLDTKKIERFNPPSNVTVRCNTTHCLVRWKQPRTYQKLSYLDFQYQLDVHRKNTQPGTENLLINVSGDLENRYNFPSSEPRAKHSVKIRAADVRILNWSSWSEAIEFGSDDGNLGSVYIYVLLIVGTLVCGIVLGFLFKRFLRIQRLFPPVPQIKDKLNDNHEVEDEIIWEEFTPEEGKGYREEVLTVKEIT


Columns and labels:
[1] = target: T1, human GM-CSFRα, full length on cells; assay: cell-based or functional assay
[2] = target: T1, human GM-CSFRα, full length on cells; assay: cell-based or functional assay; remark: listed apart in the source

| Binder | IC50, TF-1 cell proliferation [1] | IC50, TF-1 cell proliferation [2] |
| --- | --- | --- |
| E35-VH28H-VL30L-IG4 (antibody, IgG4, V domains shown) VH: QMQLVQSGAEVKKPGASVKVSCKVSGYHLTELSIHWVRQAPGKGLEWMGGFDPEDGETIYAQKFQGRVTMTGDTSTDTAYLELSSLRSEDTALYYCATGRYTSLATTYGFDYWGQGTLVTVSS VL: EIVMTQSPATLSLSPGERATLSCRASQSVLSYLAWYQQKPGQAPRLLIYGASSRATGIPDRFSGSGSGTDFTLTISRLEPEDFAVYYCQQYDNWPYTFGQGTKLEIK | 0.0296 µg/mL |  |
| E35-VH28H-IG4 (antibody, IgG4, V domains shown) VH: QMQLVQSGAEVKKPGASVKVSCKVSGYHLTELSIHWVRQAPGKGLEWMGGFDPEDGETIYAQKFQGRVTMTGDTSTDTAYLELSSLRSEDTALYYCATGRYTSLATTYGFDYWGQGTLVTVSS VL: EIVMTQSPATLSLSPGERATLSCRASQSVSSYLAWYQQKPGQAPRLLIYGASSRATGIPDRFSGSGSGTDFTLTISRLEPEDFAVYYCQQYDNWPYTFGQGTKLEIK | 0.0569 µg/mL |  |
| E35-VH28H-VL30C-IG4 (antibody, IgG4, V domains shown) VH: QMQLVQSGAEVKKPGASVKVSCKVSGYHLTELSIHWVRQAPGKGLEWMGGFDPEDGETIYAQKFQGRVTMTGDTSTDTAYLELSSLRSEDTALYYCATGRYTSLATTYGFDYWGQGTLVTVSS VL: EIVMTQSPATLSLSPGERATLSCRASQSVCSYLAWYQQKPGQAPRLLIYGASSRATGIPDRFSGSGSGTDFTLTISRLEPEDFAVYYCQQYDNWPYTFGQGTKLEIK | 0.0431 µg/mL |  |
| E35-VH28E-IG4 (antibody, IgG4, V domains shown) VH: QMQLVQSGAEVKKPGASVKVSCKVSGYELTELSIHWVRQAPGKGLEWMGGFDPEDGETIYAQKFQGRVTMTGDTSTDTAYLELSSLRSEDTALYYCATGRYTSLATTYGFDYWGQGTLVTVSS VL: EIVMTQSPATLSLSPGERATLSCRASQSVSSYLAWYQQKPGQAPRLLIYGASSRATGIPDRFSGSGSGTDFTLTISRLEPEDFAVYYCQQYDNWPYTFGQGTKLEIK | 0.0307 µg/mL |  |
| E35-VH28E-VL30L-IG4 (antibody, IgG4, V domains shown) VH: QMQLVQSGAEVKKPGASVKVSCKVSGYELTELSIHWVRQAPGKGLEWMGGFDPEDGETIYAQKFQGRVTMTGDTSTDTAYLELSSLRSEDTALYYCATGRYTSLATTYGFDYWGQGTLVTVSS VL: EIVMTQSPATLSLSPGERATLSCRASQSVLSYLAWYQQKPGQAPRLLIYGASSRATGIPDRFSGSGSGTDFTLTISRLEPEDFAVYYCQQYDNWPYTFGQGTKLEIK | 0.0268 µg/mL |  |

Next, values leading:

| IC50, TF-1 cell proliferation [1] | IC50, TF-1 cell proliferation [2] | Binder |
| --- | --- | --- |
| 0.0371 µg/mL |  | E35-VL93D-IG4 (antibody, IgG4, V domains shown) VH: QMQLVQSGAEVKKPGASVKVSCKVSGYTLTELSIHWVRQAPGKGLEWMGGFDPEDGETIYAQKFQGRVTMTGDTSTDTAYLELSSLRSEDTALYYCATGRYTSLATTYGFDYWGQGTLVTVSS VL: EIVMTQSPATLSLSPGERATLSCRASQSVSSYLAWYQQKPGQAPRLLIYGASSRATGIPDRFSGSGSGTDFTLTISRLEPEDFAVYYCQQYDDWPYTFGQGTKLEIK |
| 0.0163 µg/mL |  | E35-VH28H-VL93L-IG4 (antibody, IgG4, V domains shown) VH: QMQLVQSGAEVKKPGASVKVSCKVSGYHLTELSIHWVRQAPGKGLEWMGGFDPEDGETIYAQKFQGRVTMTGDTSTDTAYLELSSLRSEDTALYYCATGRYTSLATTYGFDYWGQGTLVTVSS VL: EIVMTQSPATLSLSPGERATLSCRASQSVSSYLAWYQQKPGQAPRLLIYGASSRATGIPDRFSGSGSGTDFTLTISRLEPEDFAVYYCQQYDLWPYTFGQGTKLEIK |
|  | 0.156 µg/mL | E35-scFv LS31M (scFv, V domains shown) VH: QMQLVQSGAEVKKPGASVKVSCKVSGYTLTELSIHWVRQAPGKGLEWMGGFDPEDGETIYAQKFQGRVTMTGDTSTDTAYLELSSLRSEDTALYYCATGRYTSLATTYGFDYWGQGTLVTVSS VL: EIVMTQSPATLSLSPGERATLSCRASQSVSMYLAWYQQKPGQAPRLLIYGASSRATGIPDRFSGSGSGTDFTLTISRLEPEDFAVYYCQQYDNWPYTFGQGTKLEIK |
